Measurements reported in publication PMC9405932.

Biological target: BCAS1-SV1 (novel splice variant of BCAS1), full length, Gal4 fusion for yeast two-hybrid (human)
Sequence (O75363 whole entry, change not shown, the tested form may be a part, canonical isoform): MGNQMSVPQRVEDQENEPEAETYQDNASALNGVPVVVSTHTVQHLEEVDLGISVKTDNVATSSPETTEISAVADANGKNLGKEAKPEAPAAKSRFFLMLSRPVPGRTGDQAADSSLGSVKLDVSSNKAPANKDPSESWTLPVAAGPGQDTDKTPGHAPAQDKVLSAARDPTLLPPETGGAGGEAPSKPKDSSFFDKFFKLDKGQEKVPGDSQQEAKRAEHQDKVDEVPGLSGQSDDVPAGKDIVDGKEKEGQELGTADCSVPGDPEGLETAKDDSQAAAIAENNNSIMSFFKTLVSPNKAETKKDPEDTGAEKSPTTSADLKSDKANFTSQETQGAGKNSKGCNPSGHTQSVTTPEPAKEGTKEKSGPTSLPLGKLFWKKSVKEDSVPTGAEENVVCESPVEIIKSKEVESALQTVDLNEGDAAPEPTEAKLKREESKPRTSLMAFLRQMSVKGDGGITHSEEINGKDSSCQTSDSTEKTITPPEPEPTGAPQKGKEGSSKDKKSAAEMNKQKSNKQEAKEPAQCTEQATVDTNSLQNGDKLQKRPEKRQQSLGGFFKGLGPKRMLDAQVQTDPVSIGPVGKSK

decrease of migration of GBM8401 cells (scratch wound assay) by maackiain (MK), dose series up to 1 μM; MK is said to disrupt the pair: 67%
decrease of migration of M059K cells (scratch wound assay) by maackiain (MK), dose series up to 1 μM; MK is said to disrupt the pair: 70%
Substance: β-arrestin 2 (ARRB2), full length, Gal4 fusion for yeast two-hybrid (from UniProt P32121-1 1-409) (natural protein)
